Laboratory results as given in publication PMC5349785 (Molecular Biology of the Cell, 2017).

Molecular target: CSC with GFP-tagged Vps29 (CSC-GFP) (S. cerevisiae, UniProt P34110;P40335;P38759)
Assay: pull-down

CSC with GFP-tagged Vps29 (CSC-GFP), sequence (P34110 whole entry, chain 1 of 3): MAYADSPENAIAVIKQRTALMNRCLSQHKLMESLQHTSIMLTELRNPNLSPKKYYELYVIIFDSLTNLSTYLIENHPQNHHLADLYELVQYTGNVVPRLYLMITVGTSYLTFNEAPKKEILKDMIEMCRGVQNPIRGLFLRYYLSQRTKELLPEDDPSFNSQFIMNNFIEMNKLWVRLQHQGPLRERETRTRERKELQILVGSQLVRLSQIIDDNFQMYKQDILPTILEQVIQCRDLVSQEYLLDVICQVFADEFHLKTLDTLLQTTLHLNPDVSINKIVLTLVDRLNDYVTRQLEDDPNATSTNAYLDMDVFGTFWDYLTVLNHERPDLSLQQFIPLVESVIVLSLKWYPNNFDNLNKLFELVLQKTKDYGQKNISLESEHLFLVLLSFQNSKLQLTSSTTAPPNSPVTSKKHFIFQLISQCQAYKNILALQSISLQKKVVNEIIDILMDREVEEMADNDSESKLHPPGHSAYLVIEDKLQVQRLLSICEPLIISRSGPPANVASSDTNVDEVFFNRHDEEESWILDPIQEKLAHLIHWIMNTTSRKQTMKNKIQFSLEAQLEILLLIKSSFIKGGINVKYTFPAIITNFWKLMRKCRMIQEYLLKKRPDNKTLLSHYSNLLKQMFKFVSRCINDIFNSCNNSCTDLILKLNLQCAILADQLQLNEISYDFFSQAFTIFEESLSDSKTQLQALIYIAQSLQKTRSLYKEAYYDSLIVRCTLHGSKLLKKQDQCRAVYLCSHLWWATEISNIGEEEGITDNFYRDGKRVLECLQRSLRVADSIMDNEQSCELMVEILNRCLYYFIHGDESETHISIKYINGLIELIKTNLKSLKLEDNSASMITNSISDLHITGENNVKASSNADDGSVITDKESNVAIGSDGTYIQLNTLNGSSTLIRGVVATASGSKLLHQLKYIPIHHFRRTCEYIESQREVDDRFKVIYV
CSC with GFP-tagged Vps29 (CSC-GFP), sequence (P40335 whole entry, chain 2 of 3): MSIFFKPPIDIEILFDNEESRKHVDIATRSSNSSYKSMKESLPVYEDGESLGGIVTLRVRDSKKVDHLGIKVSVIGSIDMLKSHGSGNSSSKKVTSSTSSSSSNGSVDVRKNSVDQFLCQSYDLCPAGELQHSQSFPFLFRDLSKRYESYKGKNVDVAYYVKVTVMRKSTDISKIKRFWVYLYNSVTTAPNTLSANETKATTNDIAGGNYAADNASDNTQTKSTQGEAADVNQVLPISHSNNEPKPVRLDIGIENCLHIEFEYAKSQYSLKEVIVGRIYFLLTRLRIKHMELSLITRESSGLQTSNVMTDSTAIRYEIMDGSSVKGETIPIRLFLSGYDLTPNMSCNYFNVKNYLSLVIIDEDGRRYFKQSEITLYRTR
CSC with GFP-tagged Vps29 (CSC-GFP), sequence (P38759 whole entry, chain 3 of 3): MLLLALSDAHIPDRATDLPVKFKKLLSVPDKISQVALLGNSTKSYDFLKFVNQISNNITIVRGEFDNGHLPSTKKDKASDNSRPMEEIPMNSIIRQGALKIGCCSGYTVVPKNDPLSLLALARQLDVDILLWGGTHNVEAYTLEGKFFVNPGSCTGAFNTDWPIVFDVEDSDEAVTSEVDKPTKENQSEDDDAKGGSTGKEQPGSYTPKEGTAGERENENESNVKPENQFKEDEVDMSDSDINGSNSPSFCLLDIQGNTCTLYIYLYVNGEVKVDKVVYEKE

binding result	Binder
binds	SNX-BAR complex with GFP-tagged Vps17 (SNX-BAR-GFP) (complex) chain 1: MDYEDNLEAPVWDELNHEGDKTQSLVSNSIESIGQISTNEERKDNELLETTASFADKIDLDSAPEWKDPGLSVAGNPQLEEHDNSKADDLINSLAPEQDPIADLKNSTTQFIATRESGGALFTGNANSPLVFDDTIYDANTSPNTSKSISGRRSGKPRILFDSARAQRNSKRNHSLKAKRTTASDDTIKTPFTDPLKKAEKENEFVEEPLDDRNERRENNEGKFTASVEKNILEQVDRPLYNLPQTGANISSPAEVEENSEKFGKTKIGSKVPPTEKAVAFKVEVKDPVKVGELTSIHVEYTVISESSLLELKYAQVSRRYRDFRWLYRQLQNNHWGKVIPPPPEKQSVGSFKENFIENRRFQMESMLKKICQDPVLQKDKDFLLFLTSDDFSSESKKRAFLTGSGAINDSNDLSEVRISEIQLLGAEDAAEVLKNGGIDAESHKGFMSISFSSLPKYNEADEFFIEKKQKIDELEDNLKKLSKSLEMVDTSRNTLAASTEEFSSMVETLASLNVSEPNSELLNNFADVHKSIKSSLERSSLQETLTMGVMLDDYIRSLASVKAIFNQRSKLGYFLVVIENDMNKKHSQLGKLGQNIHSEKFREMRKEFQTLERRYNLTKKQWQAVGDKIKDEFQGFSTDKIREFRNGMEISLEAAIESQKECIELWETFYQTNL chain 2: MTSAVPYDPYDDLDNNPFAEPQEEDSEPAATTTDGSSSMSEERVGTEQTAASVQDNGTANNIQNGLGEEGNATRSKTSNEHNENQQPSQPSERVILPERSDEKKKYTLLAKVTGLERFGSATGKKENPTIIFDCSTNLPTFRKQQYKNVKKSYEEFHQLFKYLNVAIQESFVPTLPSAYTTFGINSEEDRMKVTRNFQLWFNRLSQDPLIIRNEEVAFFIESDFNTYTPINKSKSLASGLKRKTLKQLAPPYDEITELAEFRPLVKSIYVVSQSLQEKLLRVSRNRKMMVQEENAFGQDFVNLDEHNKLYRRYGKILTAVGDIDSIIATMDMATLYDGLEWIVRDAYAVKEALTNRHFIMRNLVQAQQNSKAKQEQARRFRSRRDINPMKIDEALRQLKAAAKNEQVLTLKLQRITSNMIIERKQWISWYEEWIRSSIKEFTLRKIEYERKKLTLLERVRSDIRKADENGGLSRLGRHAVSNNNSDTSQTLKGDSWTGESNRKSQIPINKIAHTEFDDELFTEDDGYNSQDSDTTSLNARHAASLLGMSTK
binds	N-terminal fragment of Vps5 (residues 1-280) (domain or fragment) MDYEDNLEAPVWDELNHEGDKTQSLVSNSIESIGQISTNEERKDNELLETTASFADKIDLDSAPEWKDPGLSVAGNPQLEEHDNSKADDLINSLAPEQDPIADLKNSTTQFIATRESGGALFTGNANSPLVFDDTIYDANTSPNTSKSISGRRSGKPRILFDSARAQRNSKRNHSLKAKRTTASDDTIKTPFTDPLKKAEKENEFVEEPLDDRNERRENNEGKFTASVEKNILEQVDRPLYNLPQTGANISSPAEVEENSEKFGKTKIGSKVPPTEKAVA
